Results taken from IntAct's records for PubMed 29997244.

B1: DnaJ homolog subfamily C member 5 (Homo sapiens), Q9H3Z4 (parent)
chain: MADQRQRSLSTSGESLYHVLGLDKNATSDDIKKSYRKLALKYHPDKNPDNPEAADKFKEINNAHAILTDATKRNIYDKYGSLGLYVAEQFGEENVNTYFVLSSWWAKALFVFCGLLTCCYCCCCLCCCFNCCCGKCKPKAPEGEETEFYVSPEDLEAQLQSDEREATDTPIVIQPASATETTQLTADSHPSYHTDGFN

Variants of: B1
Conditions: with zdh17_human ZDHHC17, Q8IUH5
Sequence of zdh17_human ZDHHC17, Q8IUH5 (Q8IUH5 whole entry): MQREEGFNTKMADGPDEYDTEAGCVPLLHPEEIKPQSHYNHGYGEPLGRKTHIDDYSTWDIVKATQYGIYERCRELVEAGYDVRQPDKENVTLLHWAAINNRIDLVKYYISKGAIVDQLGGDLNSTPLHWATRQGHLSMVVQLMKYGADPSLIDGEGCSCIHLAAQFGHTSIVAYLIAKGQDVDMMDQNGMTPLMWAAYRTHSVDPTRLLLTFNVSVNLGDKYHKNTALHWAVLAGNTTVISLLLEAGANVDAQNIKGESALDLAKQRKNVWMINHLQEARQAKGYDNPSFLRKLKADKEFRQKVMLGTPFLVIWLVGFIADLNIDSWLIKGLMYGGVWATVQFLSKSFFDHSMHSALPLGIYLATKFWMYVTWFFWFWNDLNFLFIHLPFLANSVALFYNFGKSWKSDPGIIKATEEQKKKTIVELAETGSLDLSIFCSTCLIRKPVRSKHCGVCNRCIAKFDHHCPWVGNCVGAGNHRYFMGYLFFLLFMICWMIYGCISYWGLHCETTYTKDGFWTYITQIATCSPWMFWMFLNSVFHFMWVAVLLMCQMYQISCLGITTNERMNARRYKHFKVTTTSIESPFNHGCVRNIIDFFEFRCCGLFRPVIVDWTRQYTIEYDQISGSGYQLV

Variant | effect of a mutation on the interaction
L115R | increasing interaction strength

Variants of: B1
Conditions: with ap2b1_human AP2B1, P63010
Sequence of ap2b1_human AP2B1, P63010 (P63010 whole entry): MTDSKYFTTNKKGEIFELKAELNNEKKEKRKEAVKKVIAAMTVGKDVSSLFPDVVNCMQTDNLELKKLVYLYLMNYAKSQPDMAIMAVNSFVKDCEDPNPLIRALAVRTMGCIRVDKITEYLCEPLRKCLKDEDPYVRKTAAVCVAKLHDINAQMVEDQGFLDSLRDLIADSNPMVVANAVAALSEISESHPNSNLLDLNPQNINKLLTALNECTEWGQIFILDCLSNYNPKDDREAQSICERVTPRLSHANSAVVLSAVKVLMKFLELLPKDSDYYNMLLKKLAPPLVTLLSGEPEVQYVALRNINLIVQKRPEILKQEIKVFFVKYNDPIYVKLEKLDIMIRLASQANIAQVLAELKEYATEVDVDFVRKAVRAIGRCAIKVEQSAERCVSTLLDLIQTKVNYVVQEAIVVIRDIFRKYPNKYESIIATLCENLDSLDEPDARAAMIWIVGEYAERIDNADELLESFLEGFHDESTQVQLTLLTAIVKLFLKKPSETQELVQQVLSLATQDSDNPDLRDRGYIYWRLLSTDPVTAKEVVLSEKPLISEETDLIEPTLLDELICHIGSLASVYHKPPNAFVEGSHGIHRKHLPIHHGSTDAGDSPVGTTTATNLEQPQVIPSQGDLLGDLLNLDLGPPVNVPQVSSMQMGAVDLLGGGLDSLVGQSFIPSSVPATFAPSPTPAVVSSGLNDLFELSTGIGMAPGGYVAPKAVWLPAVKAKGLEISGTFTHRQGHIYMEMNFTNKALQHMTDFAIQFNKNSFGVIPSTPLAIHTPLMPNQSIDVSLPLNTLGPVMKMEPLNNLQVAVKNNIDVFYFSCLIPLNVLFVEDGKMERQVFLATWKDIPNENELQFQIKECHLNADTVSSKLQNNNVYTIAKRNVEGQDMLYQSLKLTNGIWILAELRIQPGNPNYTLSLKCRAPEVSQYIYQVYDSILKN

Variant | effect of a mutation on the interaction
L115R | with no effect

Variants of: B1
Conditions: with caps1_human CADPS

Variant | effect of a mutation on the interaction
L115R | with no effect

Variants of: B1
Conditions: with cskp_human CASK

Variant | effect of a mutation on the interaction
L115R | increasing interaction strength

Variants of: B1
Conditions: with lipa1_human PPFIA1, Q13136
Sequence of lipa1_human PPFIA1, Q13136 (Q13136 whole entry): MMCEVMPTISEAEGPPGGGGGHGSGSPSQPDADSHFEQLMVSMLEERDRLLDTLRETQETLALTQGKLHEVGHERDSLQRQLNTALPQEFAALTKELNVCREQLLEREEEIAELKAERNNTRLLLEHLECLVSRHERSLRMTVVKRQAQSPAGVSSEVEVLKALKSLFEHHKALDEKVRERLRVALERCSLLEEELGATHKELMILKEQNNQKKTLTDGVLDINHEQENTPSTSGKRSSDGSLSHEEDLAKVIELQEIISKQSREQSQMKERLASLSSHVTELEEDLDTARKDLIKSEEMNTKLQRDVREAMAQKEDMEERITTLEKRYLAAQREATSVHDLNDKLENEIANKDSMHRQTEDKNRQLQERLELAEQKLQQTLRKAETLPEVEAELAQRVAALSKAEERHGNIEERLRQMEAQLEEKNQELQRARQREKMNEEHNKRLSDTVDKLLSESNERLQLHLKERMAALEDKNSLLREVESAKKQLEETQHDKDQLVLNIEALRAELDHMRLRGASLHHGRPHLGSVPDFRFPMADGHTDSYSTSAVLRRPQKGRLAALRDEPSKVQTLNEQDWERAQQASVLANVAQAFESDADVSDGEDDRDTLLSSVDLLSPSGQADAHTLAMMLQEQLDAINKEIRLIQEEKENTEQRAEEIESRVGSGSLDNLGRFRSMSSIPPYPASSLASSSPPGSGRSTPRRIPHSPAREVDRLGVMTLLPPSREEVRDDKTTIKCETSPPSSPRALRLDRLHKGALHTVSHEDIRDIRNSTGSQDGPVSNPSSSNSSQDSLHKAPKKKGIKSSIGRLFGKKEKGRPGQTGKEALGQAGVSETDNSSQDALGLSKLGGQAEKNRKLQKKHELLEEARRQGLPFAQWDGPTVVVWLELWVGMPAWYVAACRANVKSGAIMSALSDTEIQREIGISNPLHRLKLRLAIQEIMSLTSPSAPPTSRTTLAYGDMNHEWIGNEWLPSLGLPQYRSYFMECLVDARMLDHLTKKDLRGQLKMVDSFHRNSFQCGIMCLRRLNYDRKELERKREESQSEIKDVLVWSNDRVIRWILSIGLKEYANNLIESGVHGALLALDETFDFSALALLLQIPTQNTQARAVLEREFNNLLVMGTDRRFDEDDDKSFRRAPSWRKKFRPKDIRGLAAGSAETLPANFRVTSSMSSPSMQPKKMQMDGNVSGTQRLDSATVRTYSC

Variant | effect of a mutation on the interaction
L115R | with no effect

Variants of: B1
Conditions: with lipa4_human PPFIA4, O75335

Variant | effect of a mutation on the interaction
L115R | increasing interaction strength

Variants of: B1
Conditions: with rabx5_human RABGEF1, Q9UJ41
Sequence of rabx5_human RABGEF1, Q9UJ41 (Q9UJ41 whole entry): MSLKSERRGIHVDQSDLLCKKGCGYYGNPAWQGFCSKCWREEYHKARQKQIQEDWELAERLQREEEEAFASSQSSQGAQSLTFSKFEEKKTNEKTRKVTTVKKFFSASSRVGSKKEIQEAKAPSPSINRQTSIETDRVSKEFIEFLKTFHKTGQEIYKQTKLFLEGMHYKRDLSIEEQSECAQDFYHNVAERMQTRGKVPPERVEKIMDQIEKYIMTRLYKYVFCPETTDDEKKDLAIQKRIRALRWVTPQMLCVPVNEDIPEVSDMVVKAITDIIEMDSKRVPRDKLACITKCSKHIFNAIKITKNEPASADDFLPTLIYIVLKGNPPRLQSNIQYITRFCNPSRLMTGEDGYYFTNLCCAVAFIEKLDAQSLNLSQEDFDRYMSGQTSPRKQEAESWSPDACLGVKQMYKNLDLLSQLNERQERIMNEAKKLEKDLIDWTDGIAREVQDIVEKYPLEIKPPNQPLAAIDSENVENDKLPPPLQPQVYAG

Variant | effect of a mutation on the interaction
L115R | decreasing interaction strength

Variants of: B1
Conditions: with sh3g3_human SH3GL3, Q99963

Variant | effect of a mutation on the interaction
L115R | with no effect

Variants of: B1
Conditions: with snp29_human SNAP29, O95721
Sequence of snp29_human SNAP29, O95721 (O95721 whole entry): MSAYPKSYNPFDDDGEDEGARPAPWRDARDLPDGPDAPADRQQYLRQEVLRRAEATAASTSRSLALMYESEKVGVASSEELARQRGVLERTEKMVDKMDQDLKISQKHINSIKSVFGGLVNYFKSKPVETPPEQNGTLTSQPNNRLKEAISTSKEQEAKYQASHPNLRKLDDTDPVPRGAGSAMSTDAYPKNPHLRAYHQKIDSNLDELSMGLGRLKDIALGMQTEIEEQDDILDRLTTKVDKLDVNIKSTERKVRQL

Variant | effect of a mutation on the interaction
L115R | with no effect

Variants of: B1
Conditions: with syua_human SNCA

Variant | effect of a mutation on the interaction
L115R | with no effect

Variants of: B1
Conditions: with zdh17_human ZDHHC17, Q8IUH5
Remark: another data set of the same source

Variant | effect of a mutation on the interaction
L115R | decreasing interaction strength

Variants of: B1
Conditions: with grm8_human GRM8, O00222

Variant | effect of a mutation on the interaction
L115R | decreasing interaction strength

Variants of: B1
Conditions: with nrx3b_human NRXN3, Q9HDB5

Variant | effect of a mutation on the interaction
L115R | decreasing interaction strength

Variants of: B1
Conditions: with syph_human SYP

Variant | effect of a mutation on the interaction
L115R | decreasing interaction strength

Variants of: B1
Conditions: with syt1_human SYT1, P21579
Sequence of syt1_human SYT1, P21579 (P21579 whole entry): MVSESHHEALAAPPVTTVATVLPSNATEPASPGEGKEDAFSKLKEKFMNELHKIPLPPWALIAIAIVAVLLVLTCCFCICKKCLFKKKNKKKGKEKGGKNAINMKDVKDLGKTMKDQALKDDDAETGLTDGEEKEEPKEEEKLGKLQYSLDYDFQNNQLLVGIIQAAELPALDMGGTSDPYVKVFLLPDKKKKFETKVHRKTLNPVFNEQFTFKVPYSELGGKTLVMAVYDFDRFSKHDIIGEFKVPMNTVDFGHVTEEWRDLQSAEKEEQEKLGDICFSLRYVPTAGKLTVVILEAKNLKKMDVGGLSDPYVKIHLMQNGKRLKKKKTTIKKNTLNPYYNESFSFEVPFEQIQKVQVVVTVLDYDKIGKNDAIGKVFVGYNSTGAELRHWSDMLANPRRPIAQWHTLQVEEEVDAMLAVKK

Variant | effect of a mutation on the interaction
L115R | decreasing interaction strength

Variants of: B1
Conditions: with vamp2_human VAMP2, P63027

Variant | effect of a mutation on the interaction
L115R | decreasing interaction strength

Variants of: B1
Conditions: with vamp3_human VAMP3, Q15836
Sequence of vamp3_human VAMP3, Q15836 (Q15836 whole entry): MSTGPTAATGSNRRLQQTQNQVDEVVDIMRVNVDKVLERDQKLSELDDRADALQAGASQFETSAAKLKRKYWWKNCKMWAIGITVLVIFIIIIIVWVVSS

Variant | effect of a mutation on the interaction
L115R | decreasing interaction strength

Variants of: B1
Conditions: with ap2a1_human AP2A1, O95782
Sequence of ap2a1_human AP2A1, O95782 (O95782 whole entry): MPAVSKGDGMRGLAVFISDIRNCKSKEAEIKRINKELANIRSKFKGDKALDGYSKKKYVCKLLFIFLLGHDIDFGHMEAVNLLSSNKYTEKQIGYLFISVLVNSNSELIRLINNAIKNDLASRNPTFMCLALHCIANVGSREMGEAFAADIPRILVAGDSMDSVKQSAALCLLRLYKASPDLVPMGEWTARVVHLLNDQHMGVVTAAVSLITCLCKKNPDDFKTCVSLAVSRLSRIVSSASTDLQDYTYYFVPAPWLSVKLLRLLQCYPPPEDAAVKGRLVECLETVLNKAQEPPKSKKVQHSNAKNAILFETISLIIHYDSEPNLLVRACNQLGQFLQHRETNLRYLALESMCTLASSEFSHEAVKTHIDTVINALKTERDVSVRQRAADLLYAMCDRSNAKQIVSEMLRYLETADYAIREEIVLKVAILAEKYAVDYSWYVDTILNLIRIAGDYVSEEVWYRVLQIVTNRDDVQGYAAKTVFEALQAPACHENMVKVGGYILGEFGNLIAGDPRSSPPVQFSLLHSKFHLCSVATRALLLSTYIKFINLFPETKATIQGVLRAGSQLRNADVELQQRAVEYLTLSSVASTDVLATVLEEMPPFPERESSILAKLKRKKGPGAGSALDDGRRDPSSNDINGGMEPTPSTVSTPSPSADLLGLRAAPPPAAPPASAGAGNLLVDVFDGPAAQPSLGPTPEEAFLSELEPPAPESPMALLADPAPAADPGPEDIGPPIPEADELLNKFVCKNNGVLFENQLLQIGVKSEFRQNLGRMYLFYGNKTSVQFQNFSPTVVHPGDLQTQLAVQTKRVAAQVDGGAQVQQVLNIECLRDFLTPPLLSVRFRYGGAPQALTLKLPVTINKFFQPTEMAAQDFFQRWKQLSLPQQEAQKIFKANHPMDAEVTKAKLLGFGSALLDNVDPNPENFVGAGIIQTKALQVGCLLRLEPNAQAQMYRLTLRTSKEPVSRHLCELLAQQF

Variant | effect of a mutation on the interaction
L115R | with no effect

Variants of: B1
Conditions: with ap2s1_human AP2S1, P53680

Variant | effect of a mutation on the interaction
L115R | with no effect
